Test results as given in paper PMC9482650, “Quantitative fragmentomics allow affinity mapping of interactomes” (Nature Communications, 2022).

Experiments:
Format in all cases: cell-based, human
HEK293T cells = assay: RT-qPCR of mRNA levels in stable cell lines; conditions: source data of Suppl Figure 4 B, stable HEK293T cell line; for DLG1 relative mRNA level / GFP relative mRNA level / MAGI1 relative mRNA level / RPLP0 relative mRNA level / SCRIB relative mRNA level / SNTB2 relative mRNA level / SNX27 relative mRNA level / SYNJ2BP relative mRNA level / TAX1BP3 relative mRNA level / p53 relative mRNA level: IRES control line about 1
Protocol: Cells were plated on 6-well plates. When they reached confluency, RNA was isolated by using Qiagen RNeasy Mini kit (#74104). On-column DNase digestion was done by using Qiagen RNase-Free DNase Set (#79254). 2 μg total RNA per sample was transcribed to cDNA by using SuperScript IV kit (Invitrogen, #18091050) with random hexamer primers (Thermo Fisher #SO142) according to standard protocol. For qPCR, primers were designed with the help of Primer Blast (NCBI NIH, https://www.ncbi.nlm.nih.gov/tools/primer-blast/) choosing primers which recognize all common alternative transcripts of the given gene (Supplementary Fig 4). qPCR was done by using QuantiTect SyberGreen (Qiagen, #204143) and LightCycler II equipment (Roche). Standard ΔΔCt method was used to determine relative quantity to GAPDH. For further analyses GraphPad Prism 7 software was used.

HUWE1 = assay: Label-free MS proteome of stable HEK293T cell lines; conditions: stable HEK293T cells compared to control cell line, n = 3
Text: Proteins were identified by database searching using SequestHT (Thermo Fisher Scientific) with Proteome Discoverer 2.4 software (PD2.4, Thermo Fisher Scientific) on human FASTA database downloaded from SwissProt (reviewed, release 2020_11_27, 20304 entries, https://www.uniprot.org/). Precursor and fragment mass tolerances were set at 7 ppm and 0.6 Da respectively, and up to two missed cleavages were allowed. Oxidation (M, +15.995 Da) was set as variable modification, and Carbamidomethylation (C, +57.021 Da) as fixed modification. Peptides and proteins were filtered with a false discovery rate at 1%. Label-free quantification was based on the extracted ion chromatography intensity of the peptides. All samples were measured in technical triplicates. The measured extracted ion chromatogram (XIC) intensities were normalized based on median intensities of the entire dataset to correct minor loading differences. […] The detection threshold for enriched proteins in AP-MS experiments were analyzed above twofold enrichment with <0.01 P value. […] In case only a specific isoform of the detected protein contains a PBM, the identified peptide fragments were manually checked to check which isoform(s) were most likely detected. […]

SCRIB = assay: Western blot in stable HEK293T cell lines; conditions: for SCRIB relative protein level: source data of Figure 6 E, stable HEK293T cell line, IRES control line about 1

B1: E6: wild-type HPV16 E6 oncoprotein stably expressed in HEK293T cells (protein, UniProt P03126 1-158, looked up)
chain: MHQKRTAMFQDPQERPRKLPQLCTELQTTIHDIILECVYCKQQLLRREVYDFAFRDLCIVYRDGNPYAVCDKCLKFYSKISEYRHYCYSLYGTTLEQQYNKPLCDLLIRCINCQKPLCPEEKQRHLDKKQRFHNIRGRWTGRCMSCCRSSRTRRETQL
modifications: full-length
notes: wild-type HPV16 E6 oncoprotein stably expressed in HEK293T cells
DLG1 relative mRNA level (HEK293T cells; replicate 1): 1.01
GFP relative mRNA level (HEK293T cells; replicate 1): 0.3883
MAGI1 relative mRNA level (HEK293T cells; replicate 1): 1.0722
RPLP0 relative mRNA level (HEK293T cells; replicate 1): 0.9236
SCRIB relative mRNA level (HEK293T cells; replicate 1): 0.9974
SNTB2 relative mRNA level (HEK293T cells; replicate 1): 1.021
SNX27 relative mRNA level (HEK293T cells; replicate 1): 1.06
SYNJ2BP relative mRNA level (HEK293T cells; replicate 1): 0.9318
TAX1BP3 relative mRNA level (HEK293T cells; replicate 1): 0.9978
p53 relative mRNA level (HEK293T cells; replicate 1): 1.205
DLG1 relative mRNA level (HEK293T cells; replicate 2): 0.9789
GFP relative mRNA level (HEK293T cells; replicate 2): 0.361
MAGI1 relative mRNA level (HEK293T cells; replicate 2): 1.194
RPLP0 relative mRNA level (HEK293T cells; replicate 2): 0.9077
SCRIB relative mRNA level (HEK293T cells; replicate 2): 0.9906
SNTB2 relative mRNA level (HEK293T cells; replicate 2): 1.145
SNX27 relative mRNA level (HEK293T cells; replicate 2): 1.0167
SYNJ2BP relative mRNA level (HEK293T cells; replicate 2): 1.042
TAX1BP3 relative mRNA level (HEK293T cells; replicate 2): 1.009
p53 relative mRNA level (HEK293T cells; replicate 2): 1.147
DLG1 relative mRNA level (HEK293T cells; replicate 3): 0.8765
GFP relative mRNA level (HEK293T cells; replicate 3): 0.3884
MAGI1 relative mRNA level (HEK293T cells; replicate 3): 0.864
RPLP0 relative mRNA level (HEK293T cells; replicate 3): 1.0145
SCRIB relative mRNA level (HEK293T cells; replicate 3): 0.879
SNTB2 relative mRNA level (HEK293T cells; replicate 3): 0.9516
SNX27 relative mRNA level (HEK293T cells; replicate 3): 0.8492
SYNJ2BP relative mRNA level (HEK293T cells; replicate 3): 0.8794
TAX1BP3 relative mRNA level (HEK293T cells; replicate 3): 0.9092
p53 relative mRNA level (HEK293T cells; replicate 3): 0.9937
HPV16 E6 relative mRNA level (HEK293T cells; replicate 1): 0.5053
HPV16 E6 relative mRNA level (HEK293T cells; replicate 2): 0.4889
HPV16 E6 relative mRNA level (HEK293T cells; replicate 3): 0.4569
change of HUWE1 concentration (HUWE1): decreased by threefold
SCRIB relative protein level (SCRIB; replicate 1): 0.8205
SCRIB relative protein level (SCRIB; replicate 2): 0.6696
SCRIB relative protein level (SCRIB; replicate 3): 0.6225
decrease of SCRIB levels (SCRIB; western blot, GAPDH normalized, stable HEK293T cells compared to control cells, n = 3): ~ 30%
